The target of series [1] is T1, Ca. Diapherotrites archaeon SpeD homolog (PIN84875) (Candidatus Diapherotrites archaeon CG11_big_fil_rev_8_21_14_0_20_37_9, UniProt A0A2G9N1A6).
T1 construct: self-processed pyruvoyl enzyme
The experiment in a line: coupled CO2-release assay (NADH, A340), Michaelis-Menten fit. Format: biochemical. Particulars: 50 mM Hepes pH 7.7, 100 mM NaCl, 1 mM DTT, 26 °C; pyruvoyl-dependent decarboxylation. The source says: Diapherotrites archaeon SpeD homolog (PIN84875)

Series [2] has as its target T2, Ca. Woesearchaeota archaeon SpeD homolog (PIN80235) (Candidatus Woesearchaeota archaeon CG10_big_fil_rev_8_21_14_0_10_34_8, UniProt A0A2G9MN15).
T2 construct: self-processed pyruvoyl enzyme
Described as above. Particulars: 50 mM Hepes pH 7.7, 100 mM NaCl, 1 mM DTT, 26 °C; pyruvoyl-dependent decarboxylation. The format is biochemical. The text has this: Woesearchaeota archaeon SpeD homolog (PIN80235)

Series [3] concerns the target T3, Ca. Marinimicrobia bacterium SpeD (PIS27863) (Fidelibacterota bacterium CG08_land_8_20_14_0_20_45_22, UniProt A0A2H0XSF6).
T3 construct: self-processed pyruvoyl enzyme
Described as above. Format: biochemical, Candidatus Fidelibacterota bacterium. Particulars: 50 mM Hepes pH 7.7, 100 mM NaCl, 1 mM DTT, 26 °C; pyruvoyl-dependent decarboxylation. The source says: Marinimicrobia bacterium SpeD (PIS27863)

Series [4] relates to N=C(N)NCCC[C@H](N)C(=O)O. The experiment in a line: purified protein. Particulars: 50 mM Hepes pH 7.7, 100 mM NaCl, 1 mM DTT, 26 °C, pyruvoyl-dependent decarboxylation.
Series [5] relates to Ca. Sumerlaeota bacterium SpeD2 (MBN1518199). Particulars: 50 mM Hepes pH 7.7, 100 mM NaCl, 1 mM DTT, 26 °C; pyruvoyl-dependent decarboxylation.
Description: coupled CO2-release assay (NADH, A340), Michaelis-Menten fit on Ca. Sumerlaeota bacterium SpeD2 (MBN1518199)
For series [6], the system named is Ca. Peribacteria bacterium SpeD (OGJ64158). Particulars: 50 mM Hepes pH 7.7, 100 mM NaCl, 1 mM DTT, 26 °C; pyruvoyl-dependent decarboxylation.
Description: coupled CO2-release assay (NADH, A340), Michaelis-Menten fit on Ca. Peribacteria bacterium SpeD (OGJ64158)
Series [7] deals with Ca. Atribacteria bacterium SpeD2 (PIU25646). Particulars: 50 mM Hepes pH 7.7, 100 mM NaCl, 1 mM DTT, 26 °C; pyruvoyl-dependent decarboxylation.
Description: coupled CO2-release assay (NADH, A340), Michaelis-Menten fit on Ca. Atribacteria bacterium SpeD2 (PIU25646)
The target of series [8] is T4, Ca. Electrothrix aarhusiensis SpeD homolog (RWX43081) (Candidatus Electrothrix aarhusensis, UniProt A0A3S3QFL2).
T4 construct: gene H206_03171
Particulars: 50 mM Hepes pH 7.7, 100 mM NaCl, 1 mM DTT, 26 °C; pyruvoyl-dependent decarboxylation.
Description: coupled CO2-release assay (NADH, A340), Michaelis-Menten fit on Ca. Electrothrix aarhusiensis SpeD homolog (RWX43081)

Substrate in series [9]: N=C(N)NCCC[C@H](N)C(=O)O
The experiment in a line: coupled CO2-release assay (NADH, A340), Michaelis-Menten fit. The format is biochemical, Tribonema minus. Particulars: 50 mM Hepes pH 7.7, 100 mM NaCl, 1 mM DTT, 26 °C, pyruvoyl-dependent decarboxylation.
Description: coupled CO2-release assay (NADH, A340), Michaelis-Menten fit on Tribonema minus SpeD homolog (KAG5182568)

Substrate in series [10]: N=C(N)NCCC[C@H](N)C(=O)O
The series is described as above. Format: biochemical, Capsulimonas corticalis. Particulars: 50 mM Hepes pH 7.7, 100 mM NaCl, 1 mM DTT, 26 °C, pyruvoyl-dependent decarboxylation.
Description: coupled CO2-release assay (NADH, A340), Michaelis-Menten fit on Capsulimonas corticalis SpeD homolog (WP_119321511)

Substrate in series [11]: NCCC[C@H](N)C(=O)O
The experiment in a line: purified protein. Particulars: 50 mM Hepes pH 7.7, 100 mM NaCl, 1 mM DTT, 26 °C, pyruvoyl-dependent decarboxylation.

What is called Km is the substrate concentration at which the rate is half of its maximum. By kcat is commonly meant the maximal rate divided by the concentration of active sites. One may read the kcat/Km as the turnover number divided by the Michaelis constant.

T4 sequence (A0A3S3QFL2 entry or part of it): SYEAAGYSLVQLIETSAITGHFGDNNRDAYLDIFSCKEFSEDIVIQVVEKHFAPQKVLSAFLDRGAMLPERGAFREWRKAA
T4 sequence (A0A3S3QFL2 entry or part of it): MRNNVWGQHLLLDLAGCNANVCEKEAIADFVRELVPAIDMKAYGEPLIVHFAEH
T2 sequence (A0A2G9MN15 1-79 limits assumed): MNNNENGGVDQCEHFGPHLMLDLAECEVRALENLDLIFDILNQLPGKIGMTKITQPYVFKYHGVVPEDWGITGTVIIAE
T2 sequence (A0A2G9MN15 80-150 limits assumed): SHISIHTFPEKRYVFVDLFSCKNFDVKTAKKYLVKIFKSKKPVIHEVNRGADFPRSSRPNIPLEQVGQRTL
T3 sequence (A0A2H0XSF6 1-72 limits assumed): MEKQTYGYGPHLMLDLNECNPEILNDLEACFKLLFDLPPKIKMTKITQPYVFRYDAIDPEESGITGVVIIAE
T3 sequence (A0A2H0XSF6 73-131 limits assumed): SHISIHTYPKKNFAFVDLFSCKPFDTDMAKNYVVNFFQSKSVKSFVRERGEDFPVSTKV
T1 sequence (A0A2G9N1A6 1-75 limits assumed): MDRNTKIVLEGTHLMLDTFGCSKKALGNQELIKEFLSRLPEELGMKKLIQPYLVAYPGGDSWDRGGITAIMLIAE
T1 sequence (A0A2G9N1A6 76-142 limits assumed): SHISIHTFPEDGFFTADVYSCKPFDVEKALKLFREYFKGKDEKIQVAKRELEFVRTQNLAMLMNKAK

With `N=C(N)NCCC[C@H](N)C(=O)O` [L-arginine], the Km in series [1] amounted to 95 ± 19 µM; in series [2], 350 ± 24 µM; in series [3], 760 ± 50 µM.

On to “Ca. Poseidonales archaeon SpeD homolog (DAC51064) (Candidatus Poseidoniales archaeon)”, for which, in series [4], the Km came to 2800 ± 500 µM, the kcat was 0.48 ± 0.042 s⁻¹ and the kcat/Km turned out to be 180 ± 19 M⁻¹ s⁻¹.

With `NCCC[C@H](N)C(=O)O` [L-ornithine], the Michaelis constant (Km) in series [5] turned out to be 21 ± 1.3 µM; in series [6] it was 270 ± 20 µM; in series [7], 330 ± 30 µM; in series [8] it was 89 ± 13 µM.

Consider “Nannochloropsis gaditana SpeD homolog (XP_005856029) (Microchloropsis gaditana)”, for which, in [4], the Km was 1300 ± 100 µM, the kcat was found to be 0.049 ± 0.003 s⁻¹ and the specificity constant (kcat/Km) turned out to be 39 ± 0.3 M⁻¹ s⁻¹.

B1: Tribonema minus SpeD homolog (KAG5182568) (Tribonema minus) (protein)
chain: MRVPIQRTTVPQSSPLIRAHGSHIMLDFTEWWMPPEEGAEAVMELVRAALREEGVREVHHKAVVLGTRGESPPGFTAVVLIDESHVTAHCYADRGWLALDVFTCGGASTARVAAAIEAGVRRLSPRAVLQQRASAPRFVHRVD
notes: self-processed pyruvoyl enzyme
Consider B1, for which, in series [9], the Michaelis constant (Km) was found to be 720 ± 110 µM, the kcat is 0.08 ± 0.004 s⁻¹ and the kcat/Km came out at 110 ± 10 M⁻¹ s⁻¹.

B2: Capsulimonas corticalis SpeD homolog (WP_119321511) (Capsulimonas corticalis) (protein)
chain: MKNHTTYGAHLTLRIANIERRHALQGPHGVSDLLVDLIDRIGMRILAGPLTAEETGDPERRGWSSVAILYESHCAIHTYPELGEAFLDVFSCKTFPIAAITTLLTERFGEFAIVEQSLTDRGIHWGPNVEKELASWVLTRSEK
notes: as for B1
With B2, in [10], the Michaelis constant (Km) was found to be 370 ± 50 µM, the kcat is 0.08 ± 0.003 s⁻¹ and the catalytic efficiency (kcat/Km) is 220 ± 36 M⁻¹ s⁻¹.

B3: Methanospirillum hungatei JF-1 SpeD2 (WP_011448617) (Methanospirillum hungatei JF-1) (protein)
chain: MIDTLVPTREGIATAPAKSDQEIMEEFKSRNAWGLYTSVDLKNCNPETIRDAGKIREFVIQLCDLIKMKRFGEPQIINFGPCERVAGYSMTQLIETSLIGAHFANETNAAYIDIFSCKEYAPQLTAEFCREFFGADKVTVHIAFRD
For the molecule B3, in [11], the Michaelis-Menten constant (Km) was found to be 230 ± 18 µM, the turnover number (kcat) came out at 0.05 s⁻¹ and the specificity constant (kcat/Km) is 220 M⁻¹ s⁻¹.

B4: Ca. Velamenicoccus archaeovorus LiM SpeD homolog (WP_128700171) (Candidatus Velamenicoccus archaeovorus) (protein)
chain: MPKNVTMPAGSFGLEVVLDLYGCDPQTIRSAKKLSEFTTKLCKLLKMKKYGKTLLPHFGYDKAHTAGYSMLQFIETSSITGHFSELWNSAYINIFSCREFDAHKAADFTVKFFGARKATRRVLLRK
Turning to B4, in [11], the Km was 73 ± 3.2 µM, the kcat is 0.008 s⁻¹ and the kcat/Km came out at 113 M⁻¹ s⁻¹.

For the origin of these results see publication PMC10407285 (The Journal of Biological Chemistry, 2023).
